Article PMC9079162
pKd: −log10 of the molar value.

Biological target: human complement regulatory factor H (hfH) (human) (UniProt P08603)
Test: SPR

Chain of human complement regulatory factor H (hfH) (human) (P08603 19-1231): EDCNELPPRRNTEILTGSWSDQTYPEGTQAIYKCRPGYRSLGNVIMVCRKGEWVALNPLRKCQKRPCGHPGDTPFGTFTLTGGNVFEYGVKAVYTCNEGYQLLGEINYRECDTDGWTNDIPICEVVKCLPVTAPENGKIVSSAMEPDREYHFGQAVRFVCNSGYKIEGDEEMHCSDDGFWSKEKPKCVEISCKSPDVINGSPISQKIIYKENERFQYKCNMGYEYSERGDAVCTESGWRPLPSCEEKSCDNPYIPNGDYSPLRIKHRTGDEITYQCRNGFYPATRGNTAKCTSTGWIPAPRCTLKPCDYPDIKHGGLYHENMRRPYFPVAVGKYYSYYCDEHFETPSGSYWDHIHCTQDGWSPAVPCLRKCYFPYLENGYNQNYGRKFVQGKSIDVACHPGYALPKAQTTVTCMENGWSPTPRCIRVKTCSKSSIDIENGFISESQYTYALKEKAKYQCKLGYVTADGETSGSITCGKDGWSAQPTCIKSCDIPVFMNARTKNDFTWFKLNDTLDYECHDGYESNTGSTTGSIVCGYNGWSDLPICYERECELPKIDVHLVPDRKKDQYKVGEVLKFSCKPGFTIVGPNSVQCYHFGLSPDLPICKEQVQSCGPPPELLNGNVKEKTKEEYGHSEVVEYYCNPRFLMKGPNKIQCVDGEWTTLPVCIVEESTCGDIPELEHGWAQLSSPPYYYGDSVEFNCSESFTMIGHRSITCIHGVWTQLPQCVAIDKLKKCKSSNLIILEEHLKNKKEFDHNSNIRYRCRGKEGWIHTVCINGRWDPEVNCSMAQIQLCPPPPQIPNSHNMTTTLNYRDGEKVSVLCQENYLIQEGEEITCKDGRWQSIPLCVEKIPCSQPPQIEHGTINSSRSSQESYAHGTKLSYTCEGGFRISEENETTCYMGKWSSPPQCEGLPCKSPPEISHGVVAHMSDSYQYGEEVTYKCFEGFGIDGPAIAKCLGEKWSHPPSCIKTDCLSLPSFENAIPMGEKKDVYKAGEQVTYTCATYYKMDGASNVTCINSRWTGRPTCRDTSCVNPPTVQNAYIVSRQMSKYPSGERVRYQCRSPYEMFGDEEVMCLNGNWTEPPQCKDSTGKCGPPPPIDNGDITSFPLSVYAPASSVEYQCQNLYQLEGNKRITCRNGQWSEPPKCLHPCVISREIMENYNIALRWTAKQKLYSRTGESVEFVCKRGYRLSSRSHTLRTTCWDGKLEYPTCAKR

## factor H binding protein (fHbp) variant1-2,3.x from MenB clinical isolate NL096 (from UniProt E6MV22 20-274) (natural protein)
  pKd: 7.52
